The nanobody polyreactivity screen of Harvey et al. (2022)

Test: yeast display, Sf9 membrane polyspecificity reagent, FACS + sequencing; frameworks hold sequencing errors
Procedure, shortened: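 A synthetic nanobody library was expressed on Saccharomyces cerevisiae BJ5465 by galactose induction for 36–48 hours. The library was stained for 1 hour at 4 °C with 10% biotinylated, detergent-solubilized Sf9 membrane reagent and enriched with streptavidin microbeads before FACS. Low and high (top ~1%) gates were set on anti-HA fluorescence for expression and streptavidin fluorescence for reagent binding, and each polyreactivity label reflects the gate of origin.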

Sequence	polyreactivity (PSR sort gate)
QVQLVESGGGLVQAGGSLRLSCAASGFTFGRNAMGWYRQAPGKERELVASIDWSGGSTYYADSVKGRFTISRDNAKNTVYLQMNSLIPEDTAVDYCAVGPNSVGNRSYGFDYWGQGTQVTVSS	low polyreactivity
QVQLVESGGGLVQAGGSLRLSCAASGFTFGRNAMGWYRQAPGTERELVARITTGGSTNYADSVKGRFTISRDNAKYTVYLQLNSLKPEDTAVYYCAATYVSLALFWTYGYWGQGTQVTVSS	low polyreactivity
QVQLVESGGGLVQAGGSLRLSCAASGFTFGRYAMGWYRQAPGKERELVAAITYTDGSTYYADSVKGRFTISRDNAKNTVYLQMNSLKPEDTAVYYCAATTLSFEGGKYWSKYDYWGQGTQVTVSS	low polyreactivity
QVQLVESGGGLVQAGGSLRLSCAASGFTFGRYAMGWYRQAPGKVRELVAGITSGGSTYYADSVKGRFTISRDNAKKTVYLQMNSLKPEDTAVYYGAKASAYGLANDYDYWGQGTQVTVSS	low polyreactivity
QVQLVESGGGLVQAGGSLRLSCAASGFTFGRYAMGWYRQATGKERELVAAITWSGGSTHYADSVKGRFTISRDNAKNTVYLQMNSLKPEDTAVYYCAVRVIYWSGSQVSVEYYYWGQGTQVTVSS	low polyreactivity
QVQLVESGGGLVQAGGSLRLSCAASGFTFGRYDMGWYRQAPGKERELVAAISSGGNTYYADSVKGRFTISRDNAKNTVYLQMNSLKPEDTAVNYCNARTSYYSRFDYWGQGTQVTVSS	high polyreactivity
QVQLVESGGGLVQAGGSLRLSCAASGFTFGSNAMGWYRQAPGKERELVAAINYSGVRTYYADSVKGRFTISRDNAKNTVYLQMNSLKPEDTAVYYCAKKRSKRISFDYWGQGTQVTVSS	high polyreactivity
QVQLVESGGGLVQAGGSLRLSCAASGFTFGSNDMGWYRQAPGKERELVAAINYSGVRTYYADSVKGRFTISRDNAKNTVYLQMNSLKPEDTAVYYCAKKRSKPISFDYWVQGTQVTVSS	high polyreactivity
QVQLVESGGGLVQAGGSLRLSCAASGFTFGSNVMGWYRQAPGKERELVATIRRGGSTNYADSVKGRFTISRDNAKNTVYLQMNSLKPEDTAVYYCATGYAVYLSRRDYWGQGTQVTVSS	high polyreactivity
QVQLVESGGGLVQAGGSLRLSCAASGFTFGSYAMGWYRQAPGKERELVAAISRGGTTYYADSVKGRFTVSRDNAKNTVYLQMNSLKPEDTAVYYCATALIVRGPSRYEYWGQGTQVTVSS	high polyreactivity
QVQLVESGGGLVQAGGSLRLSCAASGFTFGSYAMGWYRQAPGTERELVADISRRGGRTYYADSVKGRFTISRDNAKNTVYLQMNSLKPEDTAVYYCNAVSYVYFYSSSYDYWGQGTQVTVSS	high polyreactivity
QVQLVESGGGLVQAGGSLRLSCAASGFTFGTNAMGWDRQAPGKERELVAAISGSGGSTYYADSVKGRFTISRDNAMNTVYLQMNSLKPEDTAVYYCNKGRPRKVYSEGFGYWGQGTQVTVSS	high polyreactivity
QVQLVESGGGLVQAGGSLRLSCAASGFTFGVYAMGWYRQAPGKERELVAAISTTVGSTYYADSVKGRFTISRDNAKNTVYLQMNSLKPEDSAVYYCAAEYTGYINYYIYEYWGQGTQVTVSS	low polyreactivity
QVQLVESGGGLVQAGGSLRLSCAASGFTFGVYTMGWYRQAPGKERELVAAITSGGSTHYADSVKGRFTISRDNAKNTVYLQMNSLKPEDTAVYYCAARVRPRPQRIYGYWGQGTQVTVSS	high polyreactivity
QVQLVESGGGLVQAGGSLRLSCAASGFTFGWYAMGWYRQAPGKDWEFVAAISRSGGSTYYADSVKGRFTISRDNAKNTVYLQMNSLKPEDTAVYYCAAYIIGDTHAEYDYWGQGTQVTVSS	high polyreactivity
QVQLVESGGGLVQAGGSLRLSCAASGFTFGWYAMGWYRQAPGKERELVAAIDESGGTTYYADSVKGRFTISRDNAKNTVYLQMNSLKPEDTAVYYCAADKKTPYEDDYWGQGTQVTVSS	low polyreactivity
QVQLVESGGGLVQAGGSLRLSCAASGFTFGWYDMGWYRKATGKERELVASISWSGSSTYYADSVKGRFTISRDNAKNTVYLQMNSLKPEDTAVYYCATPYWRRYDYWGQGTQVTVSS	high polyreactivity
QVQLVESGGGLVQAGGSLRLSCAASGFTFGYNAMGWYRQAPGKEREFVAAITKSGDSTYYADSVKGRFTISRDNAKNSVYLQMNSLKPEDTAVYYCAAQYRQRRHDYWGQGTQVTVSS	high polyreactivity
QVQLVESGGGLVQAGGSLRLSCAASGFTFGYYAMGCYRQAPGKERELVAAISWSGGSTYYADSVKGRFTISRDNAKNTVYLQMNSLKPEDSAVYYCAAQSYLGRTWLDYWGQGTQVTVSS	high polyreactivity
QVQLVESGGGLVQAGGSLRLSCAASGFTFGYYAMGWYRQAPGKERELVAAINYSGGSTYYADSVKGRFTISRDNEKNTVYLQMNSLKPEDTAVYYCAAAVLRTYVPDLYDYWGQGTQVTVSS	high polyreactivity
QVQLVESGGGLVQAGGSLRLSCAASGFTFGYYAMGWYRQAPGKERELVARISDGGSTNYADSVKGRFTISRDNAKNTVYLQMNSLKQEDTAVYYCAADDTRGREEYDYWGQGTQVTVSS	high polyreactivity
QVQLVESGGGLVQAGGSLRLSCAASGFTFGYYAMGWYRQAPGKERELVASISSRGGSTNYADSVKGRFTISRDNAKNTVYLQMNSLKPEDTAVYYCNADYYYPLRSNKYYYWGQGTQVTVSS	high polyreactivity

Sequence	polyreactivity (PSR sort gate)
QVQLVESGGGLVQAGGSLRLSCAASGFTFGYYAMGWYRQAPGKERELVATIDRGGGTSYADSVKGRFTISRDNAKNTVYLQMNSLKPEDTAVYYCNRAGYGAKARRYRSYWGQGTQVTVSS	high polyreactivity
QVQLVESGGGLVQAGGSLRLSCAASGFTFGYYVMGWYRQEPGKERELVAAITVSGASTYYADSVKGRFTISRDNAKNTVYLQMNSLKPEDTAVYYCAKRGYFPALRQSYYYWGQGTQVTVSS	high polyreactivity
QVQLVESGGGLVQAGGSLRLSCAASGFTFHDYAMGWYRPAPGKERELVAAITKTGGRTYYADSVKGRFTISRDNAKNTVYLQMNSLKPEVTAVYYCAAKSYWGQGTQVTVSS	high polyreactivity
QVQLVESGGGLVQAGGSLRLSCAASGFTFHNNVMGWYRQAPGKERELVATISKSGGSTYYADYVKGRFTISRDNAKNTVYLQMKSLKPEDTAVYYCARRYRDYGRYGYWGQGTQVTVSS	high polyreactivity
QVQLVESGGGLVQAGGSLRLSCAASGFTFHNYAMGLYRQSPGKEREFVAAITRNTASTYYADSVKGRFTISRDNAKITVYLQLNSLKPEDTAVYYCAATDKKHRNAYDSWGQVTQVTVSS	low polyreactivity
QVQLVESGGGLVQAGGSLRLSCAASGFTFHNYAMGWYRQAPGKEREFVAAITRNTASTYYADSVKGRFTISRDNAKNTVYLQMNSLKPEDTAVYYCAATDKKHRTAYDSWGQGTQVTVSS	low polyreactivity
QVQLVESGGGLVQAGGSLRLSCAASGFTFHPNAMGWYRPAPGKERELVAAISTRGGSTAYADSVKGRFTISRDNAKNTVYLLMNSLKPEDTAVYYCAARTSSTKYYYWGQGTQVTVSS	high polyreactivity
QVQLVESGGGLVQAGGSLRLSCAASGFTFHRYDMVWYRQAPGKERELVAGITRRSGSTFYADSVKGRFTISRDNAKNTVYLQMNSLKPEDTAVYYCAATVPGMHWIYDYWGQGTQVTVSS	high polyreactivity
QVQLVESGGGLVQAGGSLRLSCAASGFTFHSYAMGLYRQAPGKERELVAAISPGATTYYADSVKGRFTISRENANNTVYFKLNSLKPEDTAVYYFAASYQRVRDATVYTIYDYWGQGTQVTVSS	high polyreactivity
QVQLVESGGGLVQAGGSLRLSCAASGFTFHYYAMGWYRQAPGKERELVAAISSSGGNTYYADSVKGRFTISRDNAKNTVYLQMNSLKPEDTEVYYCNAYSFFLGGYDYWGQGTQVTVSS	high polyreactivity
QVQLVESGGGLVQAGGSLRLSCAASGFTFINYAMGWYRQAPGKERELVAAISRRGGSTYYADSVKGRFTISRDNAKNTVYLQMNSLKPEDTAVYYCAARGYSYNYDYWGQGTQVTVSS	high polyreactivity
QVQLVESGGGLVQAGGSLRLSCAASGFTFIPYAMGWYRQAPGKERELVAAISRKGGRTYYADSVKGRFTISRDNAKNTVYLQMNSLKPEDTAVYYCAVSQYRGIYRKYDYWGQGTQVTVSS	high polyreactivity
QVQLVESGGGLVQAGGSLRLSCAASGFTFIQYAMGWYRQAPGKERELVAAISVSGGSTYYADSVKGRFTISRDNAKNTVYLQMNSLKPEDTAVYYCNTVTSGFLSYDYWGQGTQVTVSS	high polyreactivity
QVQLVESGGGLVQAGGSLRLSCAASGFTFIQYAMGWYRQAPGKERELVAAITRSGGRTYYADSVKGRFTISRDNAKNTVFLQMNSLKPEDTAVYYCNADRTRGYQRYDYWGQGTQETVSS	high polyreactivity
QVQLVESGGGLVQAGGSLRLSCAASGFTFISNAMGWYRQAPGKERELVAAISSSGGRTFYADSVKGRFTISRDNAKNTDDLQMNSLKPEDTAVYYCNADRSLLYSRKIEYDYWGQGTQVTVSS	low polyreactivity
QVQLVESGGGLVQAGGSLRLSCAASGFTFITNAMGWYRQAPGKERELVASISIGGSTNYADSVKGRFTISRDNAKNTVYLQMNSLKPEDTAVYYCAARVYRRLFLPGRYGRPLGYWGQGTQVTVTS	high polyreactivity
QVQLVESGGGLVQAGGSLRLSCAASGFTFIYYAMGWYRQAPGKERELVAAINRGGNTYYADSVKGRFTISRDNAKNTVYLQMNSLKPEDTAVYYCNARSYRRGHYYWGQGTQVTVSS	high polyreactivity
QVQLVESGGGLVQAGGSLRLSCAASGFTFKGYTMGWYRQAPGKERELVAGISRRGGSTYYADSVKGRFTISRDNAKNTVYLQMNSLKPEDTAVYYCAADSQLTKFYYWGQGTQVTVSS	high polyreactivity
QVQLVESGGGLVQAGGSLRLSCAASGFTFKKNAMGWYRQAPGTERELVAAISRSGGITYYADSVKGRFTISRDNAKNTVYLQMNSLKPEDTAVYYCATQTYRTPGYYYWGEGTQVTVSS	high polyreactivity
QVQLVESGGGLVQAGGSLRLSCAASGFTFKRYAMGWYRQAPGKERELVAVISSGGSTYYADSVKGRFTISRDNAKNCVYLQMNRLKPEDTAVYYCNAYIGGSSWHTALDYWGQGTQVTVSS	high polyreactivity
QVQLVESGGGLVQAGGSLRLSCAASGFTFKRYAMGWYRQAPGKESELVAVISSGGSTYYADSVKGRFTISRDNAKNTVYLQMNSLKPEDTAVYYCNAYIGGSSWHTALDYWGQGTQVTVSS	high polyreactivity
